Patent publication US20040002127A1 (CHISSO, published 2004)

Biological target: T1, 35 kDa protein of Oplophorus luciferase (native, purified from Oplophorus gracilirostris) (Oplophorus gracilirostris, UniProt Q9GV46 40-359)
T1 sequence: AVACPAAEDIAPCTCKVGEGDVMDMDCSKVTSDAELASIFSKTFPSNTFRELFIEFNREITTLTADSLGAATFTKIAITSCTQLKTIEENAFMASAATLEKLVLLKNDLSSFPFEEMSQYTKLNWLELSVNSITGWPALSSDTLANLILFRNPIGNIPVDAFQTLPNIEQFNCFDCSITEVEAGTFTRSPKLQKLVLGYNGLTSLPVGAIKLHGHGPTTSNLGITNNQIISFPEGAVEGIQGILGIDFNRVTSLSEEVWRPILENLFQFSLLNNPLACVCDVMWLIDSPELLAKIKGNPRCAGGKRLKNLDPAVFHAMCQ
Assay: gel filtration of native luciferase (about 106 kDa) against SDS-PAGE and SDS gel filtration HPLC (35 kDa and 19 kDa components)
Description: The deep-sea luminous shrimp (Oplophorus gracilirostris) obtained in the Suruga Bay, Shizuoka, Japan were used as a starting material. A crude extract containing Oplophorus luciferase was prepared in the same manner as disclosed by Shimomura, et al., in Biochemistry 17 (1978) and further purified by chromatography in two steps. The first step was by hydrophobic interaction chromatography on a column of butyl Sepharose 4 Fast Flow (Pharmacia; 0.7 cm×3.5 cm) using 20 mM Tris-HCl, pH 8.5, eluting with decreasing concentrations of ammonium sulfate starting at 1.5 M. The second step was by gel filtration on a column of Superdex 200 Prep (Pharmacia; 1 cm×48 cm) in 20 mM Tris-HCl, pH 8.5, containing 50 mM NaCl. The molecular weight of Oplophorus luciferase was estimated to be about 106 kDa by gel filtration on the same column when compared with the molecular weight markers as follows: (a) amylase (200 kDa); (b) alcohol dehydrogenase (150 kDa); (c) bovine serum albumin (67 kDa); (d) ovalbumin (45 kDa); (e) carbonic anhydrase (29 kDa); and (f) ribonuclease (13.7 kDa).
SDS-PAGE analysis (12% polyacrylamide gel) of the purified samples gave two major protein bands corresponding to molecular weights of 35 kDa and 19 kDa, respectively. […]

B1: 19 kDa protein of Oplophorus luciferase (native, purified from Oplophorus gracilirostris) (enzyme)
chain: FTLADFVGDWQQTAGYNQDQVLEQGGLSSLFQALGVSVTPIQKVVLSGENGLKADIHVIIPYEGLSGFQMGLIEMIFKVVYPVDDHHFKIILHYGTLVIDGVTPNMIDYFGRPYPGIAVFDGKQITVTGTLWNGNKIYDERLINPDGSLLFRVTINGVTGWRLCENILA
notes: also called 19 kDa photoprotein
- binding result: binds
